Assay results reported in paper PMC2171822.

Target: tetramethylrhodamine-labeled microtubule (tubulin purified from bovine brain) (bovine) (UniProt Q6B856)
Experiment: fluorescence microscopy of kinesin-coated beads binding to a single microtubule

average binding frequency: 0.018 μm^−1 s^−1 | koff: 0.004 s⁻¹
Substance: native kinesin purified from bovine brain (complex)
